Reference: patent publication US20260184815A1 (published 2026)

Target: T1, human plasma kallikrein (human, UniProt P03952 20-390; P03952 391-638)
T1 construct: also called pKal; Human pKal
Assay: ELISA, biotinylated pKal signal over streptavidin background
Description: Abbreviations used: “T/B” is the ELISA signal obtained using of the “target” (biotinylated plasma kallikrein) divided by the ELISA signal of the “background” (streptavidin); both of which were coated on microtiter plates, “nd” is not determined. The symbol “q” refers to the amber suppressible stop codon (TAG), which is translated as glutamine (Q) in strains of E. coli such as the TG1 cells that were used to express the Fab fragments.

T1 sequence (P03952 20-390, chain 1 of 2): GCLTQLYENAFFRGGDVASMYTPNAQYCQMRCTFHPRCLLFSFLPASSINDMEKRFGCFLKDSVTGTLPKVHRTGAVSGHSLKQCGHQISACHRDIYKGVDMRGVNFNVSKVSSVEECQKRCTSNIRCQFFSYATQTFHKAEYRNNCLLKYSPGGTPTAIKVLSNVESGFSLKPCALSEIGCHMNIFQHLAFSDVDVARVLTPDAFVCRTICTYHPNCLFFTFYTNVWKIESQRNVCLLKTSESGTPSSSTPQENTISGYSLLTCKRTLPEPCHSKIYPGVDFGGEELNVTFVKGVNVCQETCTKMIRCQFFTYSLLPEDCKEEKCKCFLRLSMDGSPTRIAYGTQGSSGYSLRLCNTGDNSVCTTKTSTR
T1 sequence (P03952 391-638, chain 2 of 2): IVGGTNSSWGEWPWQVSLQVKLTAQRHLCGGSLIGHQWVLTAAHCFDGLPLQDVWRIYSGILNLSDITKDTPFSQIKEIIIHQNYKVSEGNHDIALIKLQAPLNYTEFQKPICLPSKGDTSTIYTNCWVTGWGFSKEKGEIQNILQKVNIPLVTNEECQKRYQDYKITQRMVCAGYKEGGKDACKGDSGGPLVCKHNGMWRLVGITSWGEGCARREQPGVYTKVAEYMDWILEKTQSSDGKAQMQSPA

| Binder | ELISA (T/B) |
| --- | --- |
| M6-G05 (Fab, V domains shown, HC as printed runs into CH1) VH: EVQLLESGGGLVQPGGSLRLSCAASGFTFSRYRMVWVRQAPGKGLEWVSSIYPSGGMTAYADSVKGRFTISRDNSKNTLYLQMNSLRAEDTAVYYCARDAVGIGDAFDIWGQGTMVTVSS VL: DIQMTQSPSSLSASVGDRVTITCRASQSISTYLNWYQLKPGKAPKLLIYNAFSMERGVPSTISGSGSGTDFTLTISSLQPEDFATYYCQQSYTTPTTFGQGTKVEIK | 18.5 T/B |
| M152-A12 (Fab, V domains shown, HC as printed runs into CH1) VH: EVQLLESGGGLVQPGGSLRLSCAASGFTFSPYFMGWVRQAPGKGLEWVSGIGPSGGSTTYADSVKGRFTISRDNSKNTLYLQMNSLRAEDTAVYYCAREGPPYSSGWYRGLRQYHFDYWGQGTLVTVSS VL: DIQMTQSPSSLSASVGDRVTITCRASQSISSYLSWYQQRPGKAPNLLIYAASSLQSGVPSRFSGSGSGTDFTLTISSLQPEDFATYYCQQSISIPRTFGQGTKVEVK | 19 T/B |
| M162-A04 (Fab) (Fab, V domains shown, Non-germlined Fab discovered using phage display; HC as printed runs into CH1) VH: EVQLLESGGGLVQPGGSLRLSCAASGFTFSHYIMMWVRQAPGKGLEWVSGIYSSGGITVYADSVKGRFTISRDNSKNTLYLQMNSLRAEDTAVYYCAYRRTGIPRRDAFDIWGQGTMVTVSS VL: DIQMTQSPSTLSASVGDRVTITCRASQSISSWLAWYQQKPGKAPNLLIYKASTLESGVPSRFSGSGSGTEFTLTISSLQPDDFATYYCQQYNTYWTFGQGTKVEIK | 11.4 T/B |
| M6-A08 (Fab, V domains shown, HC as printed runs into CH1) VH: EVQLLESGGGLVQPGGSLRLSCAASGFTFSPYPMQWVRQAPGKGLEWVSSISSSGGMTEYADSVKGRFTISRDNSKNTLYLQMNSLRAEDTAVYYCARDDYGGKGGAFDIWGQGTMVTVSS VL: DIQMTQSPSSLSASVGDRVTITCRASQRISFYLNWFQQKPGKAPNLLIYGASSLQSGVPSRFSGSGSGTDFTLTISSLQPKDFGTYYCQQTFSTPNTFGQGTKLEIK | 23.4 T/B |
| M8-E06 (Fab, V domains shown, HC as printed runs into CH1) VH: EVQLLESGGGLVQPGGSLRLSCAASGFTFSHYFMTWVRQAPGKGLEWVSSIVPSGGMTQYADSVKGRFTISRDNSKNTLYLQMNSLRAEDTAVYYCARDSYSSSWFDIWGQGTMVTVSS VL: not shown | 8.8 T/B |
| M8-C04 (Fab, V domains shown, HC as printed runs into CH1) VH: EVQLLESGGGLVQPGGSLRLSCAASGFTFSYYPMQWVRQAPGKGLEWVSYIYPSGGLTSYADSVKGRFTISRDNSKNTLYLQMNSLRAEDTAVYYCARLFYGSGSVGFEYWGQGTLVTVSS VL: QSALTQPPSVSVSPGQTASITCSGDKLGDKYTSWHQQKPGQSPVLVIYQDSKRPSGIPERFSGSNSGNTATLTISGTQAMDEADYYCQAWDSSTVFGGGTRLTVL | 44.7 T/B |
| M160-G12 (Fab) (Fab, V domains shown, HC as printed runs into CH1) VH: EVQLLESGGGLVQPGGSLRLSCAASGFTFSHYLMTWVRQAPGKGLEWVSYISPSGGHTIYADSVKGRFTISRDNSKNTLYLQMNSLRAEDTAVYYCARVARGIAARSRTSYFDYWGQGTLVTVSS VL: DIQMTQSPSFLSASVGDRVTITCRASQGISSYLAWYQQKPGKAPKLLIYAASTLQSGVPSRFSGSGSGTEFTLTISSLQPEDFATYYCQQLNSYPLTFGGGTKVEIK | 38.3 T/B |
| M8-D05 (Fab, V domains shown, HC as printed runs into CH1) VH: EVQLLESGGGLVQPGGSLRLSCAASGFTFSLYNMNWVRQAPGKGLEWVSSISPSGGFTDYADSVKGRFTISRDNSKNTLYLQMNSLRAEDTAVYYCARDLDLGILDYWGQGTLVTVSS VL: DIQMTQSPSFVSASVGDRVTITCRASQDISSWLVWYQQKPGKGPKLLIYDASNLQSGVPSRFSGGGSGTHFTLTISSLQPEDFATYYCQQADGFPLTFGGGTKVEMK | 11.9 T/B |
| M9-A03 (Fab, V domains shown, HC as printed runs into CH1) VH: not shown VL: DIQMTQSPSSLSASLGDRVTITCRASQNIDIYLNWYQQTPGKAPKLLIYGAYNLQSGVPSRFSGSGSGTDFTLTISSLQPEDFGTYYCQQSYGTPVFGQGTKLEIK | 14.4 T/B |
| M161-C11 (Fab, V domains shown, HC as printed runs into CH1) VH: EVQLLESGGGLVQPGGSLRLSCAASGFTFSDYAMKWVRQAPGKGLEWVSSISSSGGVTQYADSVKGRFTISRDNSKNTLYLQMNSLRAEDTAVYYCAREEDYSSSWYSRRFDYYYGMDVWGQGTTVTVSS VL: QSALTQPPSVSVSPGQTASITCSGDKLGDKYVSWYQQRPGQSPVLVIYQDTKRPSGIPERFSGSNSGNTATLTISGTQAVDEADYYCQAWDSSTYVFGGGTKVTVL | 41.8 T/B |
| M8-H04 (Fab, V domains shown, HC as printed runs into CH1) VH: EVQLLESGGGLVQPGGSLRLSCAASGFTFSGYWMGWVRQAPGKGLEWVSSISSSGGWTQYADSVKGRFTISRDNSKNTLYLQMNSLRAEDTATYYCARDDEIAAGGAFDIWGQGAMVTVSS VL: DIQMTQSPSSLSASIGDRVTITCRASQYISTYLNWYEQKPGKAPKLLIYGTSSLQSGVPSRFSGSGSGTEFSLTISSLQPEDFATYYCQQSFTTPFTFGQGTKLEIK | 3.3 T/B |
| M8-G09 (Fab, V domains shown, HC as printed runs into CH1) VH: EVQLLESGGGLVQPGGSLRLSCAASGFTFSLYEMLWVRQAPGKGLEWVSVIYPSGGYTDYADSVKGRFTISRDNSKNTLYLQMNSLRAEDMAVYYCARSFSGFGEIDYWGQGTLVTVSS VL: DIQMTQSPSSLSASVGDTVTITCRASQGVSYYLAWFQQKPGKAPKSLIYGASSLQSGVPSKFSGSGSGTVFTLTISSLQPDDFATYYCQQYNTYPPTFGQGTRLDIK | 28.2 T/B |
| M146-E12 (Fab, V domains shown, HC as printed runs into CH1) VH: EVQLLESGGGLVQPGGSLRLSCAASGFTFSRYIMHWVRQAPGKGLEWVSSISPSGGLTSYADSVKGRFTISRDNSKNTLYLQMNSLRAEDTAVYYCAREFENAYHYYYYGMDVWGQGTTVTVSS VL: DIQMTQSPSSLSASVGDRVTITCRASGDIGNALGWYQQKPGKAPRLLISDASTLQSGVPLRFSGSGSGTEFTLTISSLQPEDFATYYCLQGYNYPRTFGQGTKLEIR | 49.6 T/B |
| M6-D08 (Fab, V domains shown, HC as printed runs into CH1; LC amber q (WYqQK) written as Q) VH: EVQLLESGGGLVQPGGSLRLSCAASGFTFSRYHMVWVRQAPGKGLEWVSSISPSGGWTNYADSVKGRFTISRDNSKNTLYLQMNSLRAEDTAMYYCAREMATIAGQFDPWGQGTLVTVSS VL: DIQMTQSPSSLSASVGDRVTITCRASQSISSYLNWYQQKPGKAPKLLIYGASSLQSGVPSRFSGSGSGTDFTLTISSLQPEDSATYYCQQSYTRWTFGQGTKVEIK | 16 T/B |
| M6-A06 (Fab, V domains shown, HC as printed runs into CH1) VH: EVQLLESGGGLVQPGGSLRLSCAASGFTFSLYQMTWVRQAPGKGLEWVSGIWPSGGFTDYADSVKGRFTISRDNSKNTLYLQMNSLRAEDTAVYYCARVSTAVADNDYWGQGTLVTVSS VL: DIQMTQSPSSLSASVGDSVTISCRASQSISMYLNWYQHKPGKAPKLLIYGTSSLQSGVPSRFSGSGPGGTDFTLTISSLQPEDFATYYCQQSYSAPWTFGQGTKVEIK | 11.7 T/B |
| M6-D03 (Fab, V domains shown, HC as printed runs into CH1) VH: EVQLLESGGGLVQPGGSLRLSCAASGFTFSKYFMGWVRQAPGKGLEWVSVIGSSGGWTSYADSVKGRFTISRDNSKNTLYLQMNSLRAEDTAVYYCARVSTAVADNDYWGQGTLVTVSS VL: not shown | 15.5 T/B |
